Target: 3XFLAG-Kenny LIR motif mutant (F7A/L10A) (Drosophila) (UniProt Q9GYV5)
Experiment: co-IP; anti-FLAG M2-agarose immunoprecipitation from lysates of transfected S2R+ cells, 4 °C overnight, elution with 3XFLAG peptide, blot for GFP

UniProt Q9GYV5, sequence (Q9GYV5 whole entry F7A/L10A): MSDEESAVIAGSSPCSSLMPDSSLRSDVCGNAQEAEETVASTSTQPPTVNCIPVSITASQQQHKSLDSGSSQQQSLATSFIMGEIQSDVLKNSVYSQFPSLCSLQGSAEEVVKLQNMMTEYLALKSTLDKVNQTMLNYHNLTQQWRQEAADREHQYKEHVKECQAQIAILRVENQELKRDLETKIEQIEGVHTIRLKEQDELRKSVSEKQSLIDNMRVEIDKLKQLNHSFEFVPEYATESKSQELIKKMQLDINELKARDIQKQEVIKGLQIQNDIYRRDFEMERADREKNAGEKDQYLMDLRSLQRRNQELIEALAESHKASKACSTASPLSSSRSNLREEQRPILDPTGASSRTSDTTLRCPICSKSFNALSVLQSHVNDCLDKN

A percent decrease in the interaction against wild-type 3XFLAG-Kenny of 62% was found for “eGFP-Atg8a (from UniProt Q9W2S2 1-121) (natural protein)” in this work.
